What follows are substances tested against AchR (Homo sapiens, UniProt P02708) (assay: ELISA of screened peptide phages on AchR versus streptavidin (OD450)). Details: ELISA of selected 11-mer (L2) peptide phages on AchR, absorbance at 450 nm; Spep-2 positive control.
Format: binding
Description: The output phages for the 4th and 5th rounds of biopanning in Example 13-1 were inoculated to E. coli, and plated on the agar plates so as to form 100-200 plaques per plate. The plaques were inoculated on 1 ml of an SB liquid medium containing 50 μg/ml of ampicillin by using a sterile tip, and cultured with shaking at 37° C. for 5 hours, followed by the addition of 30 μl of helper phages, and then cultured at 37° C. and 200 rpm for one day. The culture was centrifuged at 12,000 rpm for 2 minutes to collect supernatant, and 2% BSA was added to the supernatant, and used for phage screening.
In a 96-well ELISA plate, 5 μg/ml AchR or streptavidin was added at 50 μl per well, and left at 4° C. overnight. The next day, the solution in each well was discarded, followed by the addition of 2% BSA, and then blocked at room temperature for 2 hours. After the solution was all discarded, the wells were washed three times with Tris (20 mM, pH7). In addition, 100 μl of each of the phage solutions obtained from the above-prepared plaques was dispensed into wells and left at 30° C. for 1 hour. After the solution in the wells was all discarded, the wells were washed three times with Tris (20 mM, pH 7), and then the HRP-conjugated anti-M13 antibody diluted 1:2,000 was added at 100 μl per well, followed by culture at 30° C. for 1 hour. After the wells were washed three times with Tris (20 mM, pH7), 100 μl of tetramethylbenzidine was added to each well to induce a color development reaction, and then the reaction was stopped by the addition of 100 μl of 1M H2SO4, and the absorbance at 450 nm (OD450) was measured. The measured absorbance was converted into a ratio of AchR absorbance to streptavidin absorbance (AchR signal/streptavidin signal), and the results are shown in FIGS. 14 to 16.

AchR, sequence (P02708 21-457): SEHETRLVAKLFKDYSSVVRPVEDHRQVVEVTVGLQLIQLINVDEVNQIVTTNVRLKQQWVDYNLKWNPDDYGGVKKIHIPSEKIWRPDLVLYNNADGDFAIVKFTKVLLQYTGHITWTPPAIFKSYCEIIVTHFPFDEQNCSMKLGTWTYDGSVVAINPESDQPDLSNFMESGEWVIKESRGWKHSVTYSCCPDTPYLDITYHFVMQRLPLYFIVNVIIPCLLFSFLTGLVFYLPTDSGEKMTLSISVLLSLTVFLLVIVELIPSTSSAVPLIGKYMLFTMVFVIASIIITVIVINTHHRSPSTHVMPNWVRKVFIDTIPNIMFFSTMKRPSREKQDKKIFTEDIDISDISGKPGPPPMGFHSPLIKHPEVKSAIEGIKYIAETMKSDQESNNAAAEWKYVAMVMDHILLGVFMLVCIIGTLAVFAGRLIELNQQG

Substance | OD
L2-3 (SPVRWKRLCLR; AchR binding peptide) [Peptide L2-3] | 0.796
L2-84 (PWHKGKRDFDR; AchR binding peptide) [Peptide L2-84] | 0.574
L2-163 (PHARTRKNITK; AchR binding peptide) [Peptide L2-163] | 0.725
L2-107 (VKHKERKCQRR; AchR binding peptide) [Peptide L2-107] | 0.681
L2-29 (AILKGKRIPNK; AchR binding peptide) [Peptide L2-29] | 0.756
L2-159 (CNQKTKKIAEK; AchR binding peptide) [Peptide L2-159] | 0.696
L2-141 (SSHKGKRAQSK; AchR binding peptide) [Peptide L2-141] | 0.462
L2-81 (TMWRQRKMSCK; AchR binding peptide) [Peptide L2-81] | 0.705
L2-173 (SWAKARKLVHR; AchR binding peptide) [Peptide L2-173] | 0.705
L2-5 (TQQRLKRVMEK; AchR binding peptide) [Peptide L2-5] | 0.752
L2-20 (SWQKCKKAEVR; AchR binding peptide) [Peptide L2-20] | 0.675
L2-47 (IEDKGRRINPR; AchR binding peptide) [Peptide L2-47] | 0.707
L2-152 (IALKPKRVWLK; AchR binding peptide) [Peptide L2-152] | 0.681
L2-6 (PELKCKRMIGR; AchR binding peptide) [Peptide L2-6] | 0.78
L2-109 (YPTKGKRCMIR; AchR binding peptide) [Peptide L2-109] | 0.596
L2-158 (MMTKYKKTCCK; AchR binding peptide) [Peptide L2-158] | 0.73
L2-14 (GMWKVRKTVFR; AchR binding peptide) [Peptide L2-14] | 0.746
L2-77 (VADRQKKTAPK; AchR binding peptide) [Peptide L2-77] | 0.733
L2-59 (FGVKYRRVICR; AchR binding peptide) [Peptide L2-59] | 0.69
L2-53 (PAWRCKRCQPK; AchR binding peptide) [Peptide L2-53] | 0.614
L2-86 (SQWKIRKRLIR; AchR binding peptide) [Peptide L2-86] | 0.701
L2-132 (LFTRIKRLVCK; AchR binding peptide) [Peptide L2-132] | 0.515
L2-128 (SPWRIRRQNIR; AchR binding peptide) [Peptide L2-128] | 0.516
L2-69 (WCCKTKRAVMK; AchR binding peptide) [Peptide L2-69] | 0.676
L2-90 (TSVKKRKQRLR; AchR binding peptide) [Peptide L2-90] | 0.765
L2-197 (CPYRIRRGPGK; AchR binding peptide) [Peptide L2-197] | 0.768
L2-111 (GYFRPRKETCK; AchR binding peptide) [Peptide L2-111] | 0.594
L2-101 (NGVRERKWQSK; AchR binding peptide) [Peptide L2-101] | 0.592
L2-61 (PTIRVRKSDDR; AchR binding peptide) [Peptide L2-61] | 0.688

Same assay, conditions: ELISA of selected 14-mer (L3) peptide phages on AchR, absorbance at 450 nm; Spep-2 positive control

Substance | OD
L3-113 (CLFKYRKSCVRLCG; AchR binding peptide) [Peptide L3-113] | 0.766
L3-109 (YITKFRKFLMKDQF; AchR binding peptide) [Peptide L3-109] | 0.613
L3-67 (VTWKFRKAEKRWGY; AchR binding peptide) [Peptide L3-67] | 0.786
L3-153 (FHTKLRKPIPKIDM; AchR binding peptide) [Peptide L3-153] | 0.768
L3-162 (ANWRTRRDLAKEHV; AchR binding peptide) [Peptide L3-162] | 0.781
L3-199 (PQTRYRKYFYRPQM; AchR binding peptide) [Peptide L3-199] | 0.781
L3-31 (LSDKKRKSLLRYDY; AchR binding peptide) [Peptide L3-31] | 0.763
L3-147 (ADHRAKKTLSKFWT; AchR binding peptide) [Peptide L3-147] | 0.562
L3-102 (IMVKIRRCPARPLC; AchR binding peptide) [Peptide L3-102] | 0.581
L3-69 (CVNRVKKSDSKGTW; AchR binding peptide) [Peptide L3-69] | 0.733
L3-53 (HCLRTKKLINKICS; AchR binding peptide) [Peptide L3-53] | 0.679
L3-49 (VAFKTRRRVQRQSG; AchR binding peptide) [Peptide L3-49] | 0.629
L3-70 (DHERERRLWSRFPF; AchR binding peptide) [Peptide L3-70] | 0.781
L3-29 (CASKPRRTYLRAAN; AchR binding peptide) [Peptide L3-29] | 0.789
L3-18 (EYQKCKKPSFRLTM; AchR binding peptide) [Peptide L3-18] | 0.806
L3-158 (FDMRDRRPNARVMP; AchR binding peptide) [Peptide L3-158] | 0.738
L3-57 (EEIKQKKLHLRVWF; AchR binding peptide) [Peptide L3-57] | 0.674
L3-66 (YISKSKKTAGRWFW; AchR binding peptide) [Peptide L3-66] | 0.738
L3-187 (HGHKPRRWIYRMPM; AchR binding peptide) [Peptide L3-187] | 0.731
L3-149 (PFGKFKRLENKDEC; AchR binding peptide) [Peptide L3-149] | 0.571
L3-39 (DDVKQRKKHPRVQT; AchR binding peptide) [Peptide L3-39] | 0.654
L3-171 (LDTKNRRGASKWDY; AchR binding peptide) [Peptide L3-171] | 0.629
L3-26 (VPMKYRRCGNRQSN; AchR binding peptide) [Peptide L3-26] | 0.802
L3-88 (PETRHRKMFIRDFW; AchR binding peptide) [Peptide L3-88] | 0.7
L3-119 (TPLKSRKYWNKHAY; AchR binding peptide) [Peptide L3-119] | 0.693
L3-108 (ESYRLRRGTDKEQW; AchR binding peptide) [Peptide L3-108] | 0.621
L3-90 (LWNRYKKLLMRIFW; AchR binding peptide) [Peptide L3-90] | 0.818
L3-14 (FPGKSKKQWHRLWP; AchR binding peptide) [Peptide L3-14] | 0.892

Same assay, conditions: phage ELISA, absorbance at 450 nm, 5 μg/ml AchR; 4th and 5th round biopanning phages

Substance | OD
KWKRFSQR [Peptide L1-197] | 0.631
KVKRLWNR [Peptide L1-110] | 0.422
RIRRVSQR [Peptide L1-60] | 0.484
RGKRGCER [Peptide L1-54] | 0.569
KERKGAVR [Peptide L1-100] | 0.737
KDKKTPCK [Peptide L1-193] | 0.588
KSRRAVFR [Peptide L1-151] | 0.479
KGKRTGCK [Peptide L1-126] | 0.362
KARRNSLK [Peptide L1-175] | 0.621
KKRKGSAK [Peptide L1-2] | 0.68
RHKRWEVR [Peptide L1-195] | 0.642
KYKKSFTK [Peptide L1-198] | 0.63
RDRKFVQK [Peptide L1-154] | 0.633
RGRRWFVK [Peptide L1-28] | 0.656
KERKLWWK [Peptide L1-171] | 0.583
RYRRWFYR [Peptide L1-155] | 0.618
KPKKPPAR [Peptide L1-84] | 0.576

Substance | OD
KEKRAVHK [Peptide L1-48] | 0.519
RWRRSVIK [Peptide L1-106] | 0.417
RGKKPWWR [Peptide L1-104] | 0.46
KARRVGTK [Peptide L1-143] | 0.416
KSRRSAGK [Peptide L1-73] | 0.644
KMRKHDVR [Peptide L1-74] | 0.649
KARRQEDK [Peptide L1-14] | 0.755
RCKRCDNK [Peptide L1-120] | 0.388
KGKKYYQK [Peptide L1-105] | 0.507
RPRRTHIK [Peptide L1-6] | 0.652
KDKRWANR [Peptide L1-77] | 0.636
RDRKNPVR [Peptide L1-124] | 0.428
KDKRPECK [Peptide L1-133] | 0.504
KAKKIRQR [Peptide L1-1] | 0.693
RHKKFIEK [Peptide L1-59] | 0.479
RLRRRYRR [Peptide L1-45] | 0.597
